# Tested on: Escherichia coli TOP10
# Experiment: shrunken log2 fold change of peptide-encoding DNA abundance (4.5 h post-induction vs induction); higher = less antimicrobial activity (less host growth inhibition)
# Details: time post-induction: 4.5 h; library: site-saturation at positions 5, 18, 19, 20
# 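Note: peptides expressed intracellularly from a pBAD plasmid library in pooled LB shake-flask culture, induced with 0.3% L-arabinose, DNA abundance read by NGS, three biological replicates, DESeq2 with apeglm shrinkage.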
row,Sequence,shrunken log2 fold change
1,RRIRDRPPRLPRPRPRPKYNPRP,-0.813
2,RRIRQRPPRLPRPRPRPCIAPRP,-0.0382
3,RRIRKRPPRLPRPRPRPAYRPRP,0.0954
4,RRIRWRPPRLPRPRPRPELLPRP,0.485
5,RRIRIRPPRLPRPRPRPDIPPRP,-0.112
6,RRIRDRPPRLPRPRPRPVPEPRP,0.252
7,RRIRLRPPRLPRPRPRPDFIPRP,-0.295
8,RRIRDRPPRLPRPRPRPFPSPRP,-0.0268
9,RRIRARPPRLPRPRPRPRARPRP,0.911
10,RRIRKRPPRLPRPRPRPEWFPRP,0.219
11,RRIRRRPPRLPRPRPRPPPAPRP,1.28
12,RRIRIRPPRLPRPRPRPYRVPRP,-0.0849
13,RRIRVRPPRLPRPRPRPWHRPRP,-0.145
14,RRIRHRPPRLPRPRPRPCVCPRP,0.0978
15,RRIRLRPPRLPRPRPRPQEGPRP,0.0327
16,RRIRERPPRLPRPRPRPHQIPRP,-0.372
17,RRIRRRPPRLPRPRPRPLYGPRP,0.0447
18,RRIRWRPPRLPRPRPRPMPQPRP,0.178
19,RRIRMRPPRLPRPRPRPSMMPRP,0.0163
20,RRIRTRPPRLPRPRPRPLEMPRP,0.0834
21,RRIRDRPPRLPRPRPRPMQDPRP,-0.0272

row,Sequence,shrunken log2 fold change
1,RRIRRRPPRLPRPRPRPHLKPRP,-0.0915
2,RRIRERPPRLPRPRPRPHRWPRP,0.0978
3,RRIRFRPPRLPRPRPRPTMLPRP,-0.423
4,RRIRFRPPRLPRPRPRPYYGPRP,-0.0202
5,RRIRTRPPRLPRPRPRPFCWPRP,-0.0403
6,RRIRIRPPRLPRPRPRPKQDPRP,-0.354
7,RRIRDRPPRLPRPRPRPIDCPRP,0.0306
8,RRIRVRPPRLPRPRPRPFHLPRP,0.0337
9,RRIRCRPPRLPRPRPRPSFMPRP,-0.688
10,RRIRARPPRLPRPRPRPPIDPRP,0.647
11,RRIRERPPRLPRPRPRPCRAPRP,-0.0474
12,RRIRWRPPRLPRPRPRPLSYPRP,-0.243
13,RRIRRRPPRLPRPRPRPQRSPRP,0.302
14,RRIRSRPPRLPRPRPRPGRSPRP,0.109
15,RRIRFRPPRLPRPRPRPPQWPRP,0.384
16,RRIRFRPPRLPRPRPRPEGIPRP,0.00745
17,RRIRLRPPRLPRPRPRPDEIPRP,-0.0542
18,RRIRGRPPRLPRPRPRPDIIPRP,0.188
19,RRIRARPPRLPRPRPRPPGMPRP,0.471
20,RRIRWRPPRLPRPRPRPGIHPRP,0.11
21,RRIRHRPPRLPRPRPRPQDRPRP,-0.111

row,Sequence,shrunken log2 fold change
1,RRIRQRPPRLPRPRPRPVEDPRP,-0.0933
2,RRIRKRPPRLPRPRPRPRNMPRP,-0.162
3,RRIRSRPPRLPRPRPRPMHDPRP,-0.314
4,RRIRDRPPRLPRPRPRPCCCPRP,0.714
5,RRIRHRPPRLPRPRPRPECYPRP,-0.0176
6,RRIRKRPPRLPRPRPRPQVAPRP,-0.0663
7,RRIRFRPPRLPRPRPRPLCFPRP,-0.211
8,RRIRRRPPRLPRPRPRPWLNPRP,-0.0295
9,RRIRYRPPRLPRPRPRPMYQPRP,-0.124
10,RRIRERPPRLPRPRPRPSTWPRP,-0.651
11,RRIRVRPPRLPRPRPRPKAPPRP,0.592
12,RRIRLRPPRLPRPRPRPLHVPRP,-0.173
13,RRIRKRPPRLPRPRPRPVREPRP,0.817
14,RRIRRRPPRLPRPRPRPCCQPRP,0.0136
15,RRIRLRPPRLPRPRPRPIMVPRP,-0.117
16,RRIRVRPPRLPRPRPRPDERPRP,0.139
17,RRIRVRPPRLPRPRPRPYAGPRP,0.0438
18,RRIRVRPPRLPRPRPRPRIEPRP,0.314
19,RRIRPRPPRLPRPRPRPEDAPRP,0.0442
20,RRIRNRPPRLPRPRPRPLKAPRP,-0.0472
21,RRIRRRPPRLPRPRPRPFYLPRP,-0.226
